Assay results from patent US20250034266A1 (ZAI LAB SHANGHAI, published 2025).
Where two headings read alike, the source gives them in different places.

Columns and labels:
human CCR8 [1] = biological target: T1, human CCR8 (human, UniProt P51685 1-355); assay: FACS on HEK293-human CCR8 cells
T1 construct: whole, on cells; also called hCCR8
Procedure: (§1) A total of 5×10⁴ cells for each well were seeded in 96-well plates and washed with FACS buffer (DPBD containing 1.5% FBS) for once. Antibodies were prepared with 3-fold serial dilution ranging from 100 nM to 0.0017 nM in FACS buffer. Cells were incubated with 50 μL of diluted antibodies at 4° C. for 1 hour. […] After primary antibody incubation, cells were washed for 3 times by FACS buffer. Then, cells were stained by Alexa Flu647 labeled anti-human IgG secondary antibody (Jackson ImmunoResearch, #109606170) or Alexa Flu647 labeled anti-mouse IgG secondary antibody (Jackson ImmunoResearch, #115605072) at 1:600 dilution in FACS buffer for 0.5 hour at 4° C. After washed for 3 times, Flow cytometry was performed to measure the binding.

cynomolgus CCR8 [2] = biological target: T2, cynomolgus CCR8 (cynomolgus, UniProt G7NYJ2 1-355); assay: FACS on HEK293-cynomolgus CCR8 cells
T2 construct: whole, on cells
T2 sequence (G7NYJ2 entry or part of it): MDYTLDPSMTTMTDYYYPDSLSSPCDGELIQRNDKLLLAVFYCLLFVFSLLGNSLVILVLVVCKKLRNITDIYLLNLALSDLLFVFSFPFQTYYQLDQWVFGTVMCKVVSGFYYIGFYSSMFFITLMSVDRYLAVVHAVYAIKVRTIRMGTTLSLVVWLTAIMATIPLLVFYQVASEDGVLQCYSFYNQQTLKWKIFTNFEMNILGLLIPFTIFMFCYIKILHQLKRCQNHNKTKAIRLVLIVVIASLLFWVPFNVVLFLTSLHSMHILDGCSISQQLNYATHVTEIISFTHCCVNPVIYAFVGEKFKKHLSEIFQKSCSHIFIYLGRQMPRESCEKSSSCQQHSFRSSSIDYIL
Procedure: as §1

human CCR8 [3] = biological target: T1, human CCR8; assay: FACS, competition with AF647-human CCL1 on CHO-K1-human CCR8 cells
cynomolgus CCR8 [4] = biological target: T2, cynomolgus CCR8; assay: FACS on HEK293-cynomolgus CCR8 cells; remark: listed apart in the source
Summary of the method: (§2)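 Antibodies, 3-fold dilutions from 100 nM to 0.0017 nM, incubated with 5×10⁴ HEK293 cells in FACS buffer (1.5% FBS) 1 h at 4 °C. Binding detected by flow cytometry after Alexa Fluor 647 anti-human or anti-mouse IgG secondary (1:600, 0.5 h, 4 °C).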

human CCR8 [5] = biological target: T1, human CCR8; assay: cell-based or functional assay
human CCR8 [6] = biological target: T1, human CCR8; assay: FACS, competition with AF647-human CCL1 on CHO-K1-human CCR8 cells; remark: listed apart in the source
human CCR8 [7] = biological target: T1, human CCR8; assay: FACS on HEK293-human CCR8 cells; remark: listed apart in the source
Summary of the method: as §2

human CCR8 [8] = biological target: T1, human CCR8; assay: FACS on CHO-K1-human CCR8 cells
cynomolgus CCR8 [9] = biological target: T2, cynomolgus CCR8; assay: FACS on HEK293-cynomolgus CCR8 cells; remark: listed apart in the source
human CCR8 [10] = biological target: T1, human CCR8; assay: FACS on HuT78 cells (endogenous human CCR8)
Summary of the method: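 HuT78 cells with endogenous human CCR8 were incubated with diluted antibodies for 1 h at 4 °C, washed, then stained 0.5 h at 4 °C with Alexa Fluor 647 anti-human IgG (1:600). Binding measured by flow cytometry.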

human CCR8 [11] = biological target: T1, human CCR8; assay: FACS, competition with CCL1 on CHO-K1-human CCR8 cells

T1 sequence (P51685 whole entry): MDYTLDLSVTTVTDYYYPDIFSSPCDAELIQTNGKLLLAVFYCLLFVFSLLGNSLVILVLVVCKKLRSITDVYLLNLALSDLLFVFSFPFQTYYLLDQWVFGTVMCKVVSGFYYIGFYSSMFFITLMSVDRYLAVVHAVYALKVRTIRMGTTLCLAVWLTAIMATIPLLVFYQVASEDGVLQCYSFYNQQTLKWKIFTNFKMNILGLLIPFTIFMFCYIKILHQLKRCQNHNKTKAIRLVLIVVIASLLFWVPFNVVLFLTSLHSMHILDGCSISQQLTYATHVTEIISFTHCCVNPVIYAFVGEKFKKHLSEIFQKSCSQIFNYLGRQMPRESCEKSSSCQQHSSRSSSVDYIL

Binder | EC50 (human CCR8 [1]) [nM] | EC50 (cynomolgus CCR8 [2]) [nM] | IC50 (human CCR8 [3]) [nM] | Max Inhibition (%) (human CCR8 [3]) | EC50 (cynomolgus CCR8 [4]) [nM] | Max MFI (cynomolgus CCR8 [4]) [MFI] | EC50, ADCC with human PBMC (human CCR8 [5]) [nM] | Max specific lysis (%), ADCC with human PBMC (human CCR8 [5]) [%] | IC50 (human CCR8 [6]) [nM] | EC50 (human CCR8 [7]) [nM] | Max MFI (human CCR8 [7]) [MFI] | EC50 (human CCR8 [8]) [nM] | Max MFI (human CCR8 [8]) [MFI] | EC50 (cynomolgus CCR8 [9]) [nM] | Max MFI (cynomolgus CCR8 [9]) [MFI] | Max MFI (human CCR8 [10]) [MFI] | IC50 (human CCR8 [11]) [nM] | Max Inhibition (%) (human CCR8 [11])
CM149 (antibody, V domains shown, CM149 is not defined in words; also called CM149 HuIgG1; parental antibody CM149) VH: EVQLVESGGGLVQPKGSLKLSCAASGFTFNTYAMNWVRQAPGKGLEWVARIRSKSNFYATYYADSVKDRFTISRDDSQDMLYLQMNILKTEDTAIYYCVRGRDYGSSYAMDYWGQGTSVTVSS VL: DIVMTQAAPSVPVTPGESVSISCRSSKSLLHSNANTYLYWFLQRPGQSPQLLIYRMSNLASGVPDRFSGSGSGTAFTLRISRVEAEDVGVYYCMQHLEYPLTFGAGTKLELK | 0.18 | 0.263 | 0.681 | 97.8 | 0.235 | 18100 | 0.067 | 10.3 | 0.708 | 0.142 | 7100 | – | – | – | – | – | – | –
Hu149-9 (antibody, human IgG1, V domains shown, humanized, human IgG1; also called Hu149-9 HuIgG1) VH: EVQLVESGGGLVQPGGSLKLSCAASGFTFNTYAMNWVRQASGKGLEWVGRIRSKSNFYATAYAASVKGRFTISRDDSKNTAYLQMNSLKTEDTAVYYCTRGRDYGSSYAMDYWGQGTLVTVSS VL: DIVMTQSPLSLPVTPGEPASISCRSSKSLLHSNANTYLYWFLQKPGQSPQLLIYRMSNLASGVPDRFSGSGSGTDFTLKISRVEAEDVGVYYCMQHLEYPLTFGGGTKVELK | 0.072 | 0.12 | – | – | – | – | 0.06 | 7.56 | 0.119 | – | – | 0.0487 | 625000 | 0.0824 | 3.53e+06 | 32300 | 0.087 | 99.2
